B1: CAV1 (protein, UniProt Q03135 2-178, looked up)
Caveolin-1: SGGKYVDSEGHLYTVPIREQGNIYKPNNKAMADELSEKQVYDAHTKEIDLVNRDPKHLNDDVVKIDFEDVIAEPEGTHSFDGIWKASFTTFTVTKYWFYRLLSALFGIPMALIWGIYFAILSFLHIWAVVPCIKSFLIEIQCISRVYSIYVHTVCDPLFEAVGKIFSNVRINLQKEI
B2: CDH5 (protein, UniProt P33151 48-784, looked up)
Cadherin-5: DWIWNQMHIDEEKNTSLPHHVGKIKSSVSRKNAKYLLKGEYVGKVFRVDAETGDVFAIERLDRENISEYHLTAVIVDKDTGENLETPSSFTIKVHDVNDNWPVFTHRLFNASVPESSAVGTSVISVTAVDADDPTVGDHASVMYQILKGKEYFAIDNSGRIITITKSLDREKQARYEIVVEARDAQGLRGDSGTATVLVTLQDINDNFPFFTQTKYTFVVPEDTRVGTSVGSLFVEDPDEPQNRMTKYSILRGDYQDAFTIETNPAHNEGIIKPMKPLDYEYIQQYSFIVEATDPTIDLRYMSPPAGNRAQVIINITDVDEPPIFQQPFYHFQLKENQKKPLIGTVLAMDPDAARHSIGYSIRRTSDKGQFFRVTKKGDIYNEKELDREVYPWYNLTVEAKELDSTGTPTGKESIVQVHIEVLDENDNAPEFAKPYQPKVCENAVHGQLVLQISAIDKDITPRNVKFKFILNTENNFTLTDNHDNTANITVKYGQFDREHTKVHFLPVVISDNGMPSRTGTSTLTVAVCKCNEQGEFTFCEDMAAQVGVSIQAVVAILLCILTITVITLLIFLRRRLRKQARAHGKSVPEIHEQLVTYDEEGGGEMDTTSYDVSVLNSVRRGGAKPPRPALDARPSLYAQVQKPPRHAPGAHGGPGEMAAMIEVKKDEADHDGDGPPYDTLHIYGYEGSESIAESLSSLGTDSSDSDVDYDFLNDWGPRFKMLAELYGSDPREELLY
B3: SOS2 (protein, UniProt Q07890 1-1332, looked up)
Son of sevenless homolog 2: MQQAPQPYEFFSEENSPKWRGLLVSALRKVQEQVHPTLSANEESLYYIEELIFQLLNKLCMAQPRTVQDVEERVQKTFPHPIDKWAIADAQSAIEKRKRRNPLLLPVDKIHPSLKEVLGYKVDYHVSLYIVAVLEYISADILKLAGNYVFNIRHYEISQQDIKVSMCADKVLMDMFDQDDIGLVSLCEDEPSSSGELNYYDLVRTEIAEERQYLRELNMIIKVFREAFLSDRKLFKPSDIEKIFSNISDIHELTVKLLGLIEDTVEMTDESSPHPLAGSCFEDLAEEQAFDPYETLSQDILSPEFHEHFNKLMARPAVALHFQSIADGFKEAVRYVLPRLMLVPVYHCWHYFELLKQLKACSEEQEDRECLNQAITALMNLQGSMDRIYKQYSPRRRPGDPVCPFYSHQLRSKHLAIKKMNEIQKNIDGWEGKDIGQCCNEFIMEGPLTRIGAKHERHIFLFDGLMISCKPNHGQTRLPGYSSAEYRLKEKFVMRKIQICDKEDTCEHKHAFELVSKDENSIIFAAKSAEEKNNWMAALISLHYRSTLDRMLDSVLLKEENEQPLRLPSPEVYRFVVKDSEENIVFEDNLQSRSGIPIIKGGTVVKLIERLTYHMYADPNFVRTFLTTYRSFCKPQELLSLLIERFEIPEPEPTDADKLAIEKGEQPISADLKRFRKEYVQPVQLRILNVFRHWVEHHFYDFERDLELLERLESFISSVRGKAMKKWVESIAKIIRRKKQAQANGVSHNITFESPPPPIEWHISKPGQFETFDLMTLHPIEIARQLTLLESDLYRKVQPSELVGSVWTKEDKEINSPNLLKMIRHTTNLTLWFEKCIVEAENFEERVAVLSRIIEILQVFQDLNNFNGVLEIVSAVNSVSVYRLDHTFEALQERKRKILDEAVELSQDHFKKYLVKLKSINPPCVPFFGIYLTNILKTEEGNNDFLKKKGKDLINFSKRRKVAEITGEIQQYQNQPYCLRIEPDMRRFFENLNPMGSASEKEFTDYLFNKSLEIEPRNCKQPPRFPRKSTFSLKSPGIRPNTGRHGSTSGTLRGHPTPLEREPCKISFSRIAETELESTVSAPTSPNTPSTPPVSASSDLSVFLDVDLNSSCGSNSIFAPVLLPHSKSFFSSCGSLHKLSEEPLIPPPLPPRKKFDHDASNSKGNMKSDDDPPAIPPRQPPPPKVKPRVPVPTGAFDGPLHSPPPPPPRDPLPDTPPPVPLRPPEHFINCPFNLQPPPLGHLHRDSDWLRDISTCPNSPSTPPSTPSPRVPRRCYVLSSSQNNLAHPPAPPVPPRQNSSPHLPKLPPKTYKRELSHPPLYRLPLLENAETPQ
B4: CTNND1 (protein, UniProt O60716 1-968, looked up)
Catenin delta-1: MDDSEVESTASILASVKEQEAQFEKLTRALEEERRHVSAQLERVRVSPQDANPLMANGTLTRRHQNGRFVGDADLERQKFSDLKLNGPQDHSHLLYSTIPRMQEPGQIVETYTEEDPEGAMSVVSVETSDDGTTRRTETTVKKVVKTVTTRTVQPVAMGPDGLPVDASSVSNNYIQTLGRDFRKNGNGGPGPYVGQAGTATLPRNFHYPPDGYSRHYEDGYPGGSDNYGSLSRVTRIEERYRPSMEGYRAPSRQDVYGPQPQVRVGGSSVDLHRFHPEPYGLEDDQRSMGYDDLDYGMMSDYGTARRTGTPSDPRRRLRSYEDMIGEEVPSDQYYWAPLAQHERGSLASLDSLRKGGPPPPNWRQPELPEVIAMLGFRLDAVKSNAAAYLQHLCYRNDKVKTDVRKLKGIPVLVGLLDHPKKEVHLGACGALKNISFGRDQDNKIAIKNCDGVPALVRLLRKARDMDLTEVITGTLWNLSSHDSIKMEIVDHALHALTDEVIIPHSGWEREPNEDCKPRHIEWESVLTNTAGCLRNVSSERSEARRKLRECDGLVDALIFIVQAEIGQKDSDSKLVENCVCLLRNLSYQVHREIPQAERYQEAAPNVANNTGPHAASCFGAKKGKDEWFSRGKKPIEDPANDTVDFPKRTSPARGYELLFQPEVVRIYISLLKESKTPAILEASAGAIQNLCAGRWTYGRYIRSALRQEKALSAIADLLTNEHERVVKAASGALRNLAVDARNKELIGKHAIPNLVKNLPGGQQNSSWNFSEDTVISILNTINEVIAENLEAAKKLRETQGIEKLVLINKSGNRSEKEVRAAALVLQTIWGYKELRKPLEKEGWKKSDFQVNLNNASRSQSSHSYDDSTLPLIDRNQKSDKKPDREEIQMSNMGSNTKSLDNNYSTPNERGDHNRTLDRSGDLGDMEPLKGTTPLMQDEGQESLEEELDVLVLDDEGGQVSYPSMQKI
B5: SNX9 (protein, UniProt Q9Y5X1 1-595, looked up)
Sorting nexin-9: MATKARVMYDFAAEPGNNELTVNEGEIITITNPDVGGGWLEGRNIKGERGLVPTDYVEILPSDGKDQFSCGNSVADQAFLDSLSASTAQASSSAASNNHQVGSGNDPWSAWSASKSGNWESSEGWGAQPEGAGAQRNTNTPNNWDTAFGHPQAYQGPATGDDDDWDEDWDGPKSSSYFKDSESADAGGAQRGNSRASSSSMKIPLNKFPGFAKPGTEQYLLAKQLAKPKEKIPIIVGDYGPMWVYPTSTFDCVVADPRKGSKMYGLKSYIEYQLTPTNTNRSVNHRYKHFDWLYERLLVKFGSAIPIPSLPDKQVTGRFEEEFIKMRMERLQAWMTRMCRHPVISESEVFQQFLNFRDEKEWKTGKRKAERDELAGVMIFSTMEPEAPDLDLVEIEQKCEAVGKFTKAMDDGVKELLTVGQEHWKRCTGPLPKEYQKIGKALQSLATVFSSSGYQGETDLNDAITEAGKTYEEIASLVAEQPKKDLHFLMECNHEYKGFLGCFPDIIGTHKGAIEKVKESDKLVATSKITLQDKQNMVKRVSIMSYALQAEMNHFHSNRIYDYNSVIRLYLEQQVQFYETIAEKLRQALSRFPVM
B6: GRB10 (protein, UniProt Q13322 1-594, looked up)
Growth factor receptor-bound …: MALAGCPDSFLHHPYYQDKVEQTPRSQQDPAGPGLPAQSDRLANHQEDDVDLEALVNDMNASLESLYSACSMQSDTVPLLQNGQHARSQPRASGPPRSIQPQVSPRQRVQRSQPVHILAVRRLQEEDQQFRTSSLPAIPNPFPELCGPGSPPVLTPGSLPPSQAAAKQDVKVFSEDGTSKVVEILADMTARDLCQLLVYKSHCVDDNSWTLVEHHPHLGLERCLEDHELVVQVESTMASESKFLFRKNYAKYEFFKNPMNFFPEQMVTWCQQSNGSQTQLLQNFLNSSSCPEIQGFLHVKELGKKSWKKLYVCLRRSGLYCSTKGTSKEPRHLQLLADLEDSNIFSLIAGRKQYNAPTDHGLCIKPNKVRNETKELRLLCAEDEQTRTCWMTAFRLLKYGMLLYQNYRIPQQRKALLSPFSTPVRSVSENSLVAMDFSGQTGRVIENPAEAQSAALEEGHAWRKRSTRMNILGSQSPLHPSTLSTVIHRTQHWFHGRISREESHRIIKQQGLVDGLFLLRDSQSNPKAFVLTLCHHQKIKNFQILPCEDDGQTFFSLDDGNTKFSDLIQLVDFYQLNKGVLPCKLKHHCIRVAL
B7: SH2D3C (protein, UniProt Q8N5H7 1-860, looked up)
SH2 domain-containing protein …: MTEGTKKTSKKFKFFKFKGFGSLSNLPRSFTLRRSSASISRQSHLEPDTFEATQDDMVTVPKSPPAYARSSDMYSHMGTMPRPSIKKAQNSQAARQAQEAGPKPNLVPGGVPDPPGLEAAKEVMVKATGPLEDTPAMEPNPSAVEVDPIRKPEVPTGDVEEERPPRDVHSERAAGEPEAGSDYVKFSKEKYILDSSPEKLHKELEEELKLSSTDLRSHAWYHGRIPREVSETLVQRNGDFLIRDSLTSLGDYVLTCRWRNQALHFKINKVVVKAGESYTHIQYLFEQESFDHVPALVRYHVGSRKAVSEQSGAIIYCPVNRTFPLRYLEASYGLGQGSSKPASPVSPSGPKGSHMKRRSVTMTDGLTADKVTRSDGCPTSTSLPRPRDSIRSCALSMDQIPDLHSPMSPISESPSSPAYSTVTRVHAAPAAPSATALPASPVARRSSEPQLCPGSAPKTHGESDKGPHTSPSHTLGKASPSPSLSSYSDPDSGHYCQLQPPVRGSREWAATETSSQQARSYGERLKELSENGAPEGDWGKTFTVPIVEVTSSFNPATFQSLLIPRDNRPLEVGLLRKVKELLAEVDARTLARHVTKVDCLVARILGVTKEMQTLMGVRWGMELLTLPHGRQLRLDLLERFHTMSIMLAVDILGCTGSAEERAALLHKTIQLAAELRGTMGNMFSFAAVMGALDMAQISRLEQTWVTLRQRHTEGAILYEKKLKPFLKSLNEGKEGPPLSNTTFPHVLPLITLLECDSAPPEGPEPWGSTEHGVEVVLAHLEAARTVAHHGGLYHTNAEVKLQGFQARPELLEVFSTEFQMRLLWGSQGASSSQARRYEKFDKVLTALSHKLEPAVRSSEL

Each molecule was assayed on EGFR-Wt (assay: MaMTH EGFR-interactor screen, lentiviral preys against EGFR-wildtype bait (interaction score)). Settings: ratio of EGFR-Wt mean to EGFR-L858R mean interaction score.
Type: cell-based, human
How it was run: (§1)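 Interaction score is the luciferase fold-change versus averaged negative controls (Fabp5, Pex19, Pex7, GABBR2), with >1 called interacting. Luciferase was measured 24 h after triplicate bait transfection. This followed single-copy prey transduction (MOI ~0.3-0.4) of GAL4UAS-luciferase HEK293T cells and ≥48 h puromycin selection.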
B1 showed a Wt/L858R of 0.87.
In the case of B2, the Wt/L858R is reported as 0.84.
For B3, the Wt/L858R was 0.15.
B4 was tested, and the Wt/L858R was 0.83.
B5 was tested, and the Wt/L858R was 0.88.
Work on B6 yielded a Wt/L858R of 0.90.
Molecule B7 has a Wt/L858R of 0.80.

The molecules below were run against T1, EGFR-Wt (Homo sapiens, UniProt P00533) in the same assay as above. Settings: MaMTH interaction score of prey with EGFR-Wt bait, mean.
T1 construct: with the advantage of testing full-length integral membrane proteins; (GGGGS)2 linker-Cub (human ubiquitin aa 35-76)-GAL4(1-147)-mNFkB(364-550) (C); expressed in transfected cells
Type: cell-based
How it was run: as §1
B1 gave an EGFR-Wt mean of 1.86.
In the case of B2, the EGFR-Wt mean is reported as 2.22.
In the case of B3, the EGFR-Wt mean is reported as 0.28.
Work on B4 yielded an EGFR-Wt mean of 3.00.
B5 gave an EGFR-Wt mean of 1.67.
In the case of B6, the EGFR-Wt mean is reported as 3.14.
B7 was tested, and the EGFR-Wt mean was 2.33.

Each molecule was assayed against T2, EGFR-L858R (Homo sapiens, UniProt P00533, L858R) (assay: MaMTH EGFR-interactor screen, lentiviral preys against EGFR-L858R bait (interaction score)). Settings: MaMTH interaction score of prey with EGFR-L858R bait.
T2 construct: with the advantage of testing full-length integral membrane proteins; (GGGGS)2 linker-Cub (human ubiquitin aa 35-76)-GAL4(1-147)-mNFkB(364-550) (C); expressed in transfected cells
Type: cell-based
How it was run: as §1
B1 showed an EGFR-L858R mean of 2.14.
B2 was tested, and the EGFR-L858R mean was 2.63.
For B3, the EGFR-L858R mean was 1.83.
B4 gave an EGFR-L858R mean of 3.63.
B5 showed an EGFR-L858R mean of 1.89.
B6 gave an EGFR-L858R mean of 3.49.
For B7, the EGFR-L858R mean was 2.92.
